Consider 20 sequences from the DeepSol protein solubility set.

A short description of this series: soluble on expression in E. coli; label from the status in PepcDB or PDB records.
With “MAEASIEKTQILQKYLELDQRGRIIAEYVWIDGTGNLRSKGRTLKKRITSIDQLPEWNFDGSSTNQAPGHDSDIYLKPVAYYPDPFRRGDNIVVLAACYNNDGTPNKFNHRHEAAKLFAAHKDEEIWFGLEQEYTLFDMYDDVYGWPKGGYPAPQGPYYCGVGAGKVYARDMIEAHYRACLYAGLEISGINAEVMPSQWEFQVGPCTGIDMGDQLWMARYFLHRVAEEFGIKISFHPKPLKGDWNGAGCHANVSTKEMRQPGGTKYIEQAIEKLSKRHAEHIKLYGSDNDMRLTGRHETASMTAFSSGVANRGSSIRIPRSVAKEGYGYFEDRRPASNIDPYLVTGIMCETVCGAIDNADMTKEFERESS”, the “soluble on expression in E. coli” value is on record as “soluble”.

In the case of “MGSDKIHHHHHHMITEKVLSYKSPLYGRRTGSLKLRPMNFFTLREFFPSCSWEELVEIYGMTDGIPFYIIQVKPPFWELLEEELKNPISFFKDEVDFLLRYEFSEVTTYKRILEAIALGKTTLKEIKDFTGLRNSDITPYLRNLIEADLIVREVPITEKKTSKKGRYYVLDNFLAFWFRFIYPNLSRIEEGIFNVDEIKGEYPRYLGWVFEKIARQFLIELNKINKLPFKFEKIGRWWYKEEEIDIVALNEREKKGLLVEVKWKTLKEREAREILEVLNKKSKLLGLEGWEKYYGLIAREIKRKEPLIEDGYLVWDLEDFEEIVKQKSREGL”, the “soluble on expression in E. coli” value is given as “not soluble”.

Turning to “MLTGRESLLRLIGKRRRFLPNRHLLLSAHTPNSLNLEFNDYGNLVSLAGDDCRLSEDPTSSDDPSKFSDDLSLSTRKKRRLTQTTLLQSSFLSVPKQLEDGLVICTQQKSILDSETFEFSLVQRSEPSESICCKVEDGSCSPSREESLKTVTLDEDNGEAIETFIVGRKFSDVQDLEIGGDIFLLRHPENVKDRNAIKVISGDSEMLGYLPKDISQCLSPLIDDYDLKFEGTITSVPKKSSEAVLIKVVCHKMRSDGWKECELYGDFKPLWEKVLQVVEHQMQFPPKTTRYQLNFNVLLQEVLRSCSHLFTADEKAFLESFPTLSEDSQRLFIRLYTRKGPWFRLSNISYPEVTDSLQALKDLTVRGFMSSVKDANELDNQKMKEITELLNVTELRDILSMNKVFSRTSRKRDLINSLCSCYNDGTRINLATVILERTGLCAKVSSTAESLIWRVERLFFLNGEQDLSSFVLLDLGIIKYPTYKCIDSEQIFSNRTKLLAYEEAIEVAQLMDESLDNEDPQTVLKCIIIAETRISSSSLDSAHAAAFNRFTAPWVNSKVVLLGVSFFENQKRYNRAVYLLRRLLSCFNCDGRRGYWTVRLSTDLEHMGRPNESLTVAEQGLLDPWVRAGSRVALQRRILRLAKPPRRWKTPTFSNLVDNKIPEVTIQGRSLNCEVGIKNRFYGEDGEQCGVEQLALQYYSGEGGGWQGIHTESSIWLTIFGLLMWDILFSDVPGVFQTRFQVNETQ”, the “soluble on expression in E. coli” value is on record as “not soluble”.

Turning to “MLTESTDKKAVNQVIHYVYEGGGEAATDHNATVDFSRTITTDRVTNDKTYGDWTADNGDSFASVTSPVIDGYTADQLKVSEMTGITADTEDISVTVTYTRNQGTIDITYIDQTTGQTLSKLEHHHHHH”, the “soluble on expression in E. coli” value is “not soluble”.

For the sequence “MNYEGKTKIVKVTGDYALLEFKDDITAGDGLKHDVLTGKGSICAETTAILMKYLSEKGIKTHLVEYIPPRTLKVIPLKMFPLEVVVRLKKAGSFVRRYGGAEGEDLPVPLVEFFIKDDERHDPMVCVDHLEILGIATKKQAEKMKEAAVKITLALKEFFERANFELWDIKYEFGLDKDGNVVLGDEISPDTFRLRKKGEIFDKDVYRRDLGDPLKKYREVLELCRSLNSQ”, the “soluble on expression in E. coli” value is listed as “soluble”.

Consider “MDLKFKSQETGRSIGFASHLRRHGATLANHLNYTRNEFISTLADCHQNLGIEGRASSPEKQFDEDGDEIEATATKIEWQPLKCPKCHRNSENTRKLLEHLVEDHGRPQDKAWFEQFDTIGTDLKKVFDKAIRIQAENSVVKKKFQNSNDLLVCPTDSPLAPFLLMRHLQVNFQEVSQTLTEGIVLKLQIASTSYTIIFSFHKVDKARRRIKREMARKSLERRLRVLELRCARTWVPDDDVVFKKKRTSEENKALIQALKLPATSSHDDIVLKINEMKTQHDEMVK”, for which the “soluble on expression in E. coli” value was “not soluble”.

“MGSDKIHHHHHHMTIQDYMLETPVRMREIISNADSLFNEVKRTNLKKIIITGSGTSYHSGVQVQPYLQNLLDIDVVKMYPFMITEDTFKFDNENTLVVGVSQGGSSYSTYNAMKLAEDKGCKIASMAGCKNALIDEISDYILTVNCGEEKSGAKTKGYYCTKLNLMLLGLQIAREKGIISSEKYNEEINKILDAINRFEAVYKLSKQWIERNKEKLVNSKEIRIIGHSDIYGDTLEAALKLLETMRIPVTGYEFEEFIHGIYNAINSDSTIFILDTGKEPRVTKMIDVLSGWTENVFAIGRDVTENDKNLKIDITDNPYYQTFNFIVPIQLICGEIPTLRGVDPSVPKDTRFHMKLGSKKLNK”: the “soluble on expression in E. coli” value is given as “not soluble”.

As for “GMDTPANKPCIICVAITGSVPTKADNPAVPITVSEQVESTQEAFEAGAAIAHCHVRNDDGTPSSDPDRFARLTEGLHTHCPGMIVQFSTGGRSGAGQARGGMLPLKPDMASLSVGSNNFPSRVYENPPDLVDWLAAQMRSYRVTPEIEAFDLSHILRAIDMHGRGLLYGKLYVQFVMGVKNAMPADREVFDFYVRMMRTRAPQAEWCAAGIGANQLTVNEWAIAAGGHTRTGLEDNIRLDRQTLAPSNAALVRRSVELCDKYQRPVASWQQAREILGLPAAARN”, the “soluble on expression in E. coli” value is “soluble”.

“MSLAQHPTGIHHLAFMAGDIKKHIAFFSDVMGCPLVALFDMHGVPGGLHAFLRMNDHSYFSIVQLPDVDKIPVQLGVTHAGNGARPSAPGTLQHLAFRADTEDALLALRDRIRSHGINVLGPIDHGMCRSIYFAGPDQMTLEVACSSETIDEGHHHHHH”: the “soluble on expression in E. coli” value is on record as “soluble”.

Turning to “MSLILCCGEALIDMLPRQTTLGEAGFAPYAGGAVFNTAIALGRLGVPSAFFTGLSDDMMGDILRETLRASKVDFSYCATLSRPTTIAFVKLVDGHATYAFYDENTAGRMITEAELPALGADCEALHFGAISLIPEPCGSTYEALMTREHETRVISLDPNIRPGFIQNKQSHMARIRRMAAMSDIVKFSDEDLAWFGLEGDEDTLARHWLHHGAKLVVVTRGAKGAVGYSANLKVEVASERVEVVDTVGAGDTFDAGILASLKMQGLLTKAQVASLSEEQIRKALALGAKAAAVTVSRAGANPPFAHEIGLEGHHHHHH”, the “soluble on expression in E. coli” value is given as “soluble”.

For “AHHHHHHGSYDELFKKIKEKAKFVDEKLLSLIPEKEPKILYEAARHYPLAGGKRVRPFVVLTATEAVGGEWEKAIYPAVAIELIHNYSLVHDDIMDMDETRRGRPTVHKVWGINMAILAGDLLFSKAFEAISRAEIPPEKKARVLETVVKASNELCEGQAMDLEFEKRDTVTIEEYMRMISGKTGALFDASAKVGGIVGTDNEEYINALSTWGRNVGIAFQIWDDVLDLIADEEKLGKPVGSDIRKGKKTLIVAHFFENADEKDKQKFLKVFGKYAGDVKGEGIIEEDIKAEVMEAIDLLKKYGSIDYAANIAREMVKKANEALKVLPESEARKDLELLARFIVEREY”, the “soluble on expression in E. coli” value was “soluble”.

“MGSDKIHHHHHHLPENAASLGCGAWKGDTVSIEAGGMNRRVGEIVGQVLARLRPKAKSLIITVYGDAISHHGGSAWLGSVINLVEPLGLNERIVRTSVFRLSKEAWLSSMQIGRRSYYRLTEMGRRRFEAAHNRIYHYNGKPWDGRWTLAVTNIDGMDAERRDSLRRDLGWLGFGQLASGVMVHPDPDQSAVRQALAEAGVQDRAVMMTAAAEDWVTPEALRDLIHTCWDLERLASDYNEFLDTFRPLWQVLSGNGDLDPQMCFVVRTLLMHGYRRALLRDPMLPDELLPANWPGTSARVLCRNLYRLVQAAAETHVMGMLETAEGPVPEAHPAYYTRFGGLQSAD”: the “soluble on expression in E. coli” value is “not soluble”.

Consider “MDFKAKLLAEMAKKRKAVSGMEVKEGNAKFVKGADLEMKRNQEYERKQQEIASKKRKVDDEILQESSSRTKPAPVENESEIDEKTPMSEIQTRLRQRNHPIMLFGETDIDVRKRLHQLELAQPDLNEGWENELQTAMKVIGKEMDKAVVEGTADSATRHDIALPQGYEEDNWKNIEHNSTLLSVDDDLKRDCDIILSICRYILARWAKDLNDRPLDVKKTAQGMHEAAHHKQTMMHLKSLMTSMERYNCNNDIRHHLAKICRLLVIDRNYLEANNAYMEMAIGNAPWPVGVTRSGIHQRPGSAKSYVSNIAHVLNDETQRKYIQAFKRLMTKMQEYFPTDPSKSVEFVKKAV”, for which the “soluble on expression in E. coli” value is “not soluble”.

In the case of “GPGSMIFFFTLNLHDRSSLDLRVEFLFSCSDSSDSVAQHLRAIGMRGQLVQKGAATLYAGPKIASYTDACEAPVAMWEGAIPLKHERVLNGGVATRVVKKTYSHPPEIHPTNLSFNDIDSMYCLGNDELIKYFPEGVGGKMMQLMPPGHPRGFLYRKQSHLLNCFIDKLPFWQSKEKALRSLTNGRPGFIMDGPTGCGKSALLCQAVHYARSRDIITLYIANAKAWTHGEWCWPSTILPGFFDAPDAAREFLRTVAEANGSLLQAWELRVTPQDLPLEQGEKQPRSLYDLCEWGHRAVAPASIDRQSVCIKFFFDEIRAEKTKPIIIAVDGWNLFSHETHFRYPHPDFLRTLTTLNDGLTDVDLYPQELPRIPASRLSFVRGLNKLILSKQDPNKFFITCTTRDFKPFDGVSGFADVENDRFKNSLDEYAPYDPEKDSFFHPMQVENFTEYEYRAFLRFAINSGELAGLGWGPMWHYSSDFERKLYKIDFMSDRNPQRVVDHYHQELVWRYEYKRTRQKQYLLARRKMWQGAEVSNPLRNGK”, the “soluble on expression in E. coli” value is on record as “not soluble”.

For “MAHHHHHHMPHEDHKKYRVQREDLPAMPHFSDFNDPRFCGTTNKQKNGILAYYQWLHCIGNWGEEHSMCKKMRWYVERMMHETWLEKWEEKRALGHFDHTVLYGVKPWKEFEPLYQPVKKNRKGAYEYWLDRDFEPLYDVDAADWRERAPILHDMFVLGKKPVSE”, the “soluble on expression in E. coli” value is recorded as “soluble”.

Regarding “MEKAIHNLGKDARLHIIHILLQNRSKKELADELGITPAAITKYLKGITHPSDEIIEKCIEIASEDEEYHEIIKVIVSDITEALMELLREIGIEKMIDNEDIQKLKKLLDKAFDKMLSTSPSFV”, the “soluble on expression in E. coli” value is given as “not soluble”.

“NDAFRWKTQFNFSTNKNKIIKLHPDLKTFVYGDESFSSSYSMRLVEGGSFGDIYGKAFERDENGKVAFTTDKDGDKIPNVIGGGNTEKVGNCNPDFMLGWSNTFTYKGFSLYFLIDGRFGGDVLSQTQAELDQRGVSLNSGKARDAGYINIDGTQVKPRKFYTAVSGRDGCTEYYMYDATNIRLRELSLGYSLPQSWLAKAGGAFKDVQLSFVARNLFFISKKAPFDPDAVLSTGNDNQGIDVFGMPTTRSLGFNIKFTF”: the “soluble on expression in E. coli” value was “not soluble”.

Consider “MGSDKIHHHHHHMEDIIVVENLVKKFGDFEAVKGVSFSVKKGEIFAFLGPNGAGKTTTIHMLTTLLKPTSGKAWVAGHDVLKEPREVRRKIGIVFQDQSLDRELTAYENMYIHGKIYGYGGEKLKKRILELLEFVELLEFKDKPVKTFSGGMARRLEIARSLIHEPEVLFLDEPTIGLDPHTRAHMWEYISKMKKEHNMTIFLTTHYMDEAEQLADRVAIIDHGKIIALGTPTELKRMVGKEIIYVRFSEAVECLEGDFIESCRKLPDGRLELNVEDSGRAIPKIFELAQQKGLKIEEITYHKPTLNDVFLHLTGRELREEGPENSFKTMARMRMRMRR”, for which the “soluble on expression in E. coli” value is reported as “not soluble”.

As to “MSLAMQDFRPGVYRHYKGDHYLALGLARADETDEVVVVYTRLYARAGLPMSTRLLRIWNETVDTGAGPQPRFAYVGHVTPEQGEGHHHHHH”, the “soluble on expression in E. coli” value is recorded as “soluble”.

In the case of “MQRNVMSEIVYGDKQLQILIAAEKLIAEQGFQGLSMHKVAKAANMATGTIYRYFRDKDHLLIEVRLHVSQKIAEAVQANLRDDMSLQERFRTMWLNIWTLAGSCRDIISNRVQYESLPTTTCCNVRELEQKMFAKVELLFDQGKQQGIFKPLDNHLLSALSFETTVTLARQYALGFYQLDDSTLDAMIQASWDAITQH”, the “soluble on expression in E. coli” value is recorded as “not soluble”.
